Target: Recombinant human MCHR1 Protein (human) (UniProt Q99705)
Experiment: SPR; Biacore T200, CM5 chip, 25°C; MCHR1 immobilised by amine coupling (~5500 RU); PDGF-BB as analyte 100 nM to 3.125 nM; PBS-P (20 mM phosphate pH 7.4, 137 mM NaCl, 2.7 mM KCl, 0.05% P20); 1:1 kinetics model fitting

Sequence of UniProt Q99705 (Q99705 whole entry): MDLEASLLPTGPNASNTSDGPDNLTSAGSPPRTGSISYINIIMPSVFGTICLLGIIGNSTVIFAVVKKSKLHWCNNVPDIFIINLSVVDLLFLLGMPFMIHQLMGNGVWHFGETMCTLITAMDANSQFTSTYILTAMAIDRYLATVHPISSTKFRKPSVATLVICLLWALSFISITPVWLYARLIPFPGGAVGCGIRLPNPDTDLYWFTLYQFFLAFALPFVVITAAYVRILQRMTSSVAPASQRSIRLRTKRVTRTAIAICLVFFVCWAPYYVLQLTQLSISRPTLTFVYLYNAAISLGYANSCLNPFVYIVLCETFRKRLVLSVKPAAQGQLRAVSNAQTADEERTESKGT

Recombinant human PDGF-BB (from UniProt P01127 82-190) (ligand)
Kd: 46.6 nM
